Assay results published in PMC5984683 (Cancer research, 2018).
Numbering of substitutions follows the chain as printed. Numbers in names are those of the source. Where two headings read alike, the source gives them in different places. Values belong to the binder of their own block, whether it stands above or below them.

Key:
[1] = biological target: T1, full-length recombinant Fzd7 (human, UniProt O75084 33-574); test: co-IP
[2] = biological target: T1, full-length recombinant Fzd7; test: co-IP; remark: listed apart in the source

- binding result [1]: binds
Binder: DAVEEGDWTATVVDQQDCTLSLQLTTPANA [TG2 peptide 81[residues removed]110]

- binding result [2]: binds
B1: full length recombinant TG2 (enzyme, UniProt P21980 1-687, looked up)
chain: MAEELVLERCDLELETNGRDHHTADLCREKLVVRRGQPFWLTLHFEGRNYEASVDSLTFSVVTGPAPSQEAGTKARFPLRDAVEEGDWTATVVDQQDCTLSLQLTTPANAPIGLYRLSLEASTGYQGSSFVLGHFILLFNAWCPADAVYLDSEEERQEYVLTQQGFIYQGSAKFIKNIPWNFGQFEDGILDICLILLDVNPKFLKNAGRDCSRRSSPVYVGRVVSGMVNCNDDQGVLLGRWDNNYGDGVSPMSWIGSVDILRRWKNHGCQRVKYGQCWVFAAVACTVLRCLGIPTRVVTNYNSAHDQNSNLLIEYFRNEFGEIQGDKSEMIWNFHCWVESWMTRPDLQPGYEGWQALDPTPQEKSEGTYCCGPVPVRAIKEGDLSTKYDAPFVFAEVNADVVDWIQQDDGSVHKSINRSLIVGLKISTKSVGRDEREDITHTYKYPEGSSEEREAFTRANHLNKLAEKEETGMAMRIRVGQSMNMGSDFDVFAHITNNTAEEYVCRLLLCARTVSYNGILGPECGTKYLLNLNLEPFSEKSVPLCILYEKYRDCLTESNLIKVRALLVEPVINSYLLAERDLYLENPEIKIRILGEPKQKRKLVAEVSLQNPLPVALEGCTFTVEGAGLTEEQKTVEIPDPVEAGEEVKVRMDLLPLHMGLHKLVVNFESDKLKAVKGFRNVIIGPA

- binding result [2]: binds
B2: recombinant mutant TG2 (C277A) (enzyme)
chain: B1 chain with C277A
